Experimental data taken from patent US20210363257A1 (Pieris, published 2021).
Values belong to the binder of their own block, whether it stands above or below them.

Legend:
[1] = biological target: T1, huCD137-His (human CD137 with a C-terminal polyhistidine tag) (human, UniProt Q07011 24-186); test: ELISA, huCD137-His coated, detection anti-NGAL-HRP
T1 construct: Bought; also called huCD137-His-Bio
Procedure: (§1) Recombinant huPD-L1-His or cyPD-L1-His (human or cynomolgus PD-L1 with a C-terminal polyhistidine tag, R&D Systems or Sino Biologics) at the concentration of 1 μg/mL in PBS was coated overnight on microtiter plates at 4° C. After washing with PBS-0.05% T (PBS supplemented with 0.05% (v/v) Tween 20), the plates were blocked with 2% BSA (w/v) in PBS-0.1% T (PBS supplemented with 0.1% (v/v) Tween 20) for 1 h at room temperature. […] Bound molecules under study were detected by incubation with 1:5000 diluted anti-human IgG Fc-HRP (Jackson Laboratory) in PBS-0.1% T-2% BSA. After an additional wash step, fluorogenic HRP substrate (QuantaBlu, Thermo) was added to each well and the fluorescence intensity was detected using a fluorescence microplate reader.
(§2) The same ELISA setup was also employed to determine the binding potency of fusion proteins to CD137, where huCD137-His (human CD137 with C-terminal polyhistidine tag, R&D Systems) or cyCD137-Fc (cynomolgus CD137 C-terminally fused to Fc) was instead coated on a microtiter plate. The testing agents were similarly titrated and bound agents were detected via anti-NGAL-HRP.

[2] = biological target: T2, biotinylated huCD137-Fc (human CD137 Fc fusion) (human, UniProt Q07011 24-186, biotinylated); test: competitive ELISA, antibody SEQ ID NOs: 28 and 29 coated (competitor), 1 nM huCD137-Fc-bio tracer, binder titrated
T2 construct: Bought; also called huCD137-Fc-bio
Procedure: The plates were washed five times after each incubation step with 100 μL PBS-0.05% T (PBS supplemented with 0.05% (v/v) Tween 20). The plates were blocked with 2% BSA (w/v) in PBS-0.1% T (PBS supplemented with 0.1% (v/v) Tween 20) for 1 h at room temperature and subsequently washed again. […] The mixtures of testing molecules and the tracer were added to the plates and incubated for 20 min at room temperature following by five washing steps with 100 μL PBS-0.05% T. Subsequently, a 1:5000 dilution of ExtrAvidin-HRP (Sigma-Aldrich) in PBS-0.1% T-2% BSA was added to the wells and incubated for 1 h. After an additional wash step, fluorogenic HRP substrate (QuantaBlu, Thermo) was added to each well, and the fluorescence intensity was detected using a fluorescence microplate reader.
Competition data for an exemplary experiment are shown in FIG. 14, where the x-axis represents testing molecule concentration and the y-axis represents the measured trace molecule concentration. The data were fit to a 1:1 sigmoidal curve, where the IC₅₀ value and the maximum signal were free parameters, and the slope was fixed to unity.

[3] = biological target: T3, huPD-L1-His (human PD-L1 with a C-terminal polyhistidine tag) (human, UniProt Q9NZQ7 19-239); test: ELISA, huPD-L1-His coated, detection anti-human IgG Fc-HRP per paragraph 264; the filing does not say that this reagent detects the lipocalin mutein alone
T3 construct: Bought; also called biotinylated huPD-L1-His

[4] = biological target: T4, human CD137 expressed on cells (human, UniProt Q07011 24-255); test: flow cytometry, Flp-In-CHO::huCD137 cells
T4 construct: whole, on cells; also called Flp-In-CHO::huCD137; NFκB-luc2/CD137 Jurkat cells
Procedure: (§3) The geometric means of the fluorescence intensity were used to calculate EC₅₀ values using nonlinear regression (shared bottom, SLOPE=1).
(§4) 5×10⁴ cells per well were incubated for 1 h in ice-cold PBS containing 5% fetal calf serum (PBS-FCS). A dilution series of the fusion proteins and control antibodies were added to the cells and incubated for 1 h on ice. Cells were washed twice with PBS and then incubated with a goat anti-hIgG Alexa647-labeled antibody for 30 min on ice. Cells were subsequently washed and analyzed using iQue Flow cytometer (Intellicyte Screener). Mean geometric fluorescent signals were plotted and fitted with Graphpad software using nonlinear regression (shared bottom, SLOPE=1).

[5] = biological target: T5, human PD-L1 expressed on cells (human, UniProt Q9NZQ7 19-290); test: flow cytometry, Flp-In-CHO::huPDL-1 cells
T5 construct: whole, on cells; also called Flp-In-CHO::huPDL-1; RKO cells
Procedure: as §3, §4

[6] = biological target: T6, cynomolgus CD137 expressed on cells (cynomolgus, UniProt A9YYE7 24-254); test: flow cytometry, Flp-In-CHO::cynoCD137 cells
T6 construct: also called Flp-In-CHO::cynoCD137
Procedure: as §3, §4

[7] = biological target: T7, cynomolgus PD-L1 expressed on cells (cynomolgus); test: flow cytometry, Flp-In-CHO::cynoPDL-1 cells
T7 construct: whole, on cells; also called Flp-In-CHO::cynoPDL-1
Procedure: as §3, §4

[8] = biological target: T5, human PD-L1 expressed on cells; test: flow cytometry, RKO tumor cells (PD-L1-positive)
Procedure: as §4
For flow cytometric analysis, RKO cells were incubated with fusion proteins and detected using a fluorescently labeled anti-human IgG antibody as described in Example 6.

[9] = biological target: cyCD137-Fc (cynomolgus CD137 C-terminally fused to Fc) (cynomolgus); test: ELISA, cyCD137-Fc coated, detection anti-NGAL-HRP
Procedure: as §1, §2

[10] = biological target: T8, cyPD-L1-His (cynomolgus PD-L1 with a C-terminal polyhistidine tag) (cynomolgus); test: ELISA, cyPD-L1-His coated, detection anti-human IgG Fc-HRP
T8 construct: Bought
Procedure: as §1

[11] = biological target: T3, huPD-L1-His (human PD-L1 with a …); test: ELISA, huPD-L1-His coated, detection anti-human IgG Fc-HRP
Procedure: as §1

[12] = biological target: T9, huPD-L1-Fc (recombinant human PD-L1 Fc fusion) (human, UniProt Q9NZQ7 19-239); test: competitive ELISA, huPD-1-His coated, 15 nM huPD-L1-Fc tracer, binder titrated
T9 construct: Bought; also called tracer huPD-L1-Fc
Procedure: Recombinant huPD-1-His (Acrobiosystems) in PBS (1 μg/mL) was coated overnight on microtiter plates at 4° C. The plates were washed five times after each incubation step with 100 μL PBS-0.05% T (PBS supplemented with 0.05% (v/v) Tween 20). The plates were blocked with 2% BSA (w/v) in PBS-0.1% T (PBS supplemented with 0.1% (v/v) Tween 20) for 1 h at room temperature and subsequently washed again. […] The mixtures of fusion proteins and the tracer were added to the plates and incubated for 20 min at room temperature following by five washing steps with 100 μL PBS-0.05% T. Subsequently, a 1:5000 dilution of goat-anti human IgG-Fc HRP (Jackson) was added to the wells and incubated for 1 h. After an additional wash step, fluorogenic HRP substrate (QuantaBlu, Thermo) was added to each well, and the fluorescence intensity was detected using a fluorescence microplate reader.

[13] = biological target: T1, huCD137-His (human CD137 with a …); test: SPR (Biacore), binder captured by anti-human IgG Fc, huCD137-His in solution, 25 C, 1:1 model
Procedure: (§5) The binding kinetics and affinity of exemplary fusion proteins to huPD-L1-His or huCD137-His (human PD-L1 or human CD137 with a C-terminal polyhistidine tag, R&D Systems) were determined by surface plasmon resonance (SPR) using a Biacore 8K or a Biacore T200 (GE Healthcare).
(§6) The anti-human IgG Fc antibody (GE Healthcare) was immobilized on a CM5 sensor chip using standard amine chemistry: the carboxyl groups on the chip were activated using 1-ethyl-3-(3-dimethylaminopropyl)-carbodiimide (EDC) and N-hydroxysuccinimide (NHS). Subsequently, anti-human IgG Fc antibody solution (GE Healthcare) at a concentration of 25 μg/mL in 10 mM sodium acetate (pH 5.0) was applied at a flow rate of 5 μL/min until an immobilization level of 6000-10000 resonance units (RU) was achieved. Residual non-reacted NHS-esters were blocked by passing a solution of 1M ethanolamine across the surface. The reference channel was treated in an analogous manner. […] After each capture step, the needle was washed.
(§7) Double referencing was used and the 1:1 binding model was used to fit the raw data.

[14] = biological target: T3, huPD-L1-His (human PD-L1 with a …); test: SPR (Biacore), binder captured by anti-human IgG Fc, huPD-L1-His in solution, 25 C, 1:1 model
Procedure: as §5, §6, §7

[15] = biological target: T1, huCD137-His (human CD137 with a …); test: dual-binding ELISA, huCD137-His coated, binder titrated, detection with biotinylated huPD-L1-His
[16] = biological target: T3, huPD-L1-His (human PD-L1 with a …); test: dual-binding ELISA, huPD-L1-His coated, binder titrated, detection with biotinylated huCD137-His
Procedure: Recombinant huPD-L1-His (R&D Systems) in PBS (1 μg/mL) was coated overnight on microtiter plates at 4° C. The plates were washed five times after each incubation step with 100 μL PBS-0.05% T. The plates were blocked with 2% BSA (w/v) in PBS-0.1% T for 1 h at room temperature and subsequently washed again. Different concentrations of tested fusion proteins were added to the wells and incubated for 1 h at room temperature, followed by a wash step. […] After washing, a 1:5000 dilution of ExtrAvidin-HRP (Sigma-Aldrich) in PBS-0.1% T-2% BSA was added to the wells and incubated for 1 h. After an additional wash step, fluorogenic HRP substrate (QuantaBlu, Thermo) was added to each well, and the fluorescence intensity was detected using a fluorescence microplate reader.

EC50 [1]: 0.27 nM
IC50 [2]: 2.6 nM
binding result [3]: no binding (tested: 100 nM)
B1: CD137-specific lipocalin mutein SEQ ID NO: 42 (designed binder)
chain: QDSTSDLIPAPPLSKVPLQQNFQDNQFHGKWYVVGQAGNIRLREDKDPIKMMATIYELKEDKSYDVTMVKFDDKKCMYDIWTFVPGSQPGEFTLGKIKSFPGHTSSLVRVVSTNYNQHAMVFFKFVFQNREEFYITLYGRTKELTSELKENFIRFSKSLGLPENHIVFPVPIDQCIDG
notes: Mutein of mature human NGAL

EC50 [4]: 4.69 nM
EC50 [5]: 4.09 nM
EC50 [6]: 3.66 nM
EC50 [7]: 3.37 nM
EC50 [8]: 0.53 nM
EC50 [9]: 0.21 nM
EC50 [1]: 0.14 nM
EC50 [10]: 0.17 nM
EC50 [11]: 0.2 nM
IC50 [12]: 2.8 nM
Kd [13]: 5.73 nM
koff [13]: 0.000224 s⁻¹
kon [13]: 39100 M⁻¹ s⁻¹
Kd [14]: 0.537 nM
koff [14]: 0.000861 s⁻¹
kon [14]: 1.6e+06 M⁻¹ s⁻¹
EC50 [15]: 2.3 nM
EC50 [16]: 0.49 nM
B2: fusion protein SEQ ID NOs: 90 and 91 (bispecific antibody, human IgG4 S228P, kappa, F234A L235A)
heavy: not shown
light: EIVLTQSPDTLSVTPKEKVTLTCRASQSIGTNIHWFQQKPGQSPKLLIKYASESISGVPSRFSGSGSGTDFTLTINSVEAEDAATYYCQQSNSWPYTFGQGTKLEIKRTVAAPSVFIFPPSDEQLKSGTASVVCLLNNFYPREAKVQWKVDNALQSGNSQESVTEQDSKDSTYSLSSTLTLSKADYEKHKVYACEVTHQGLSSPVTKSFNRGECGGGGSGGGGSGGGGSQDSTSDLIPAPPLSKVPLQQNFQDNQFHGKWYVVGQAGNIRLREDKDPIKMMATIYELKEDKSYDVTMVKFDDKKCMYDIWTFVPGSQPGEFTLGKIKSFPGHTSSLVRVVSTNYNQHAMVFFKFVFQNREEFYITLYGRTKELTSELKENFIRFSKSLGLPENHIVFPVPIDQCIDG
notes: Antibody-lipocalin mutein fusion, IgG4 S228P backbone
